Where two headings read alike, the source gives them in different places.
How the values were obtained:
β-galactosidase = β-galactosidase 10 KU/mL in PBS (10 mM, pH 7.2), 37 °C; for Cleaved product 86Y-DOTA-NHMe, % of the total activity: mixed 1:1 (v/v), radio-TLC
Procedure: To further confirm β-galactosidase-specific cleavage, ^86Y-DOTA-β-Gal-TATE was incubated in vitro with β-galactosidase and analyzed by radio-TLC over time.
To analyze radioactive urine metabolites, ^86Y-DOTA-MVK(ε)-TATE or ^86Y-DOTA-β-Gal-TATE (13 – 15 MBq in 200 μL PBS, 4 μg) was intravenously injected into normal, non-tumor-bearing athymic nu/nu mice (n = 3). As reference controls, standard metabolites of ^86Y-DOTA-MVK(ε)-TATE (^86Y-DOTA-G-M-OH) and ^86Y-DOTA-β-Gal-TATE (^86Y-DOTA-NHMe) were also prepared and administered to normal athymic, non-tumor-bearing nu/nu mice. Urine samples were collected 1 hour post-injection, centrifuged at 10,000 rpm, and subsequently analyzed by radio-HPLC for each ^86Y-labeled DOTA-TATE variant. The radio-HPLC peaks were compared with those of the standard metabolites (^86Y-DOTA-G-M-OH or ^86Y-DOTA-NHMe). Radio-HPLC analysis was conducted under the same conditions as those used for analyzing the radiolabeled the DOTA-TATE variants, using an Agilent 1260 Infinity II system with a TSK-gel Octadecyl-4PW column and a gradient elution method. For in vitro enzyme-mediated cleavage, β-galactosidase was prepared in PBS (10 mM, pH 7.2) at 10 KU/mL. ^86Y-DOTA-β-Gal-TATE (13–15 MBq in 200 μL PBS) was mixed 1:1 (v/v) with β-galactosidase solution and incubated at 37 °C. Aliquots were taken at 1, 4, and 24 h, centrifuged at 10,000 rpm, and the supernatants were analyzed by radio-TLC. The 24 h sample was further examined by radio-HPLC to confirm metabolite identity.

[1] = PET/CT quantification of 86Y-labeled variants in AR42J xenograft mice; assay type: in vivo; settings: athymic nude, mouse, in vivo, iv, total radioactivity, 86Y-labeled, PET/CT, AR42J xenograft mice, mean ± SD, n = 3; for SUV at 1 h: 1 h post-injection; for SUV at 4 h: 4 h post-injection; for SUV at 24 h: 24 h post-injection
Procedure: For studies involving three variants (DOTA -TATE, DOTA-MVK(ε)-TATE, and DOTA-β-Gal-TATE), AR42J cells (5 × 10^6 cells per mouse) were subcutaneously inoculated into the right shoulder of the mice. Tumors were allowed to grow for 3 weeks, reaching a volume of 100 –200 mm³ before being used in subsequent experiments. For biodistribution or PET imaging studies, mice bearing subcutaneous AR42J tumors were administered 1.4 – 1.8 MBq (1 μg) of 111In-labeled DOTA-TATE variants or 2.7 – 4.9 MBq (1 μg) of 86Y-labeled DOTA-TATE variants via […]
tail vein injection. […]
PET imaging to assess the uptake of three 86Y-labeled DOTA-TATE variants (2.7 – 4.9 MBq, 1 μg) in the kidney and tumor was performed at 1, 4, and 24 hours post-injection (n = 3 per cohort) in mice bearing AR42J tumors using the MRS*PET/CT 120 scanner (MR Solutions, Guildford, UK). PET/CT data acquisition was managed using Preclinical Scan software (version 4.2.4.0, MR Solutions). Mice were anesthetized with 2% isoflurane, and static PET sc ans were acquired over 10 min. CT scans were obtained for attenuation correction and anatomical co-registration.
PET data were reconstructed using three-dimensional ordered-subsets expectation maximization, and were subsequently normalized, decay - and dead-time–corrected prior to analysis. PET/CT images were analyzed using MIM software (version 7.2.7, MIM Software Inc., Beachwood, OH, USA), and the quantitative evaluation of the maximum standardized uptake (SUVmax) and the average standardized uptake values (SUVmean) in the kidney and tumor were also performed. […]

[2] = Ex vivo biodistribution of 86Y-labeled variants in AR42J tumor-bearing mice; settings: athymic nude, mouse, iv, 1 ug, total radioactivity, mean; for tissue uptake at 1 h: 1 h post-injection; for tissue uptake at 4 h: 4 h post-injection; for tissue uptake at 24 h: 24 h post-injection
Procedure: To independently confirm these observations, ex vivo biodistribution studies were conducted using the same ^86Y-labeled compounds at matched timepoints (Fig. S16; Table S3). […]
For studies involving three variants (DOTA -TATE, DOTA-MVK(ε)-TATE, and DOTA-β-Gal-TATE), AR42J cells (5 × 10^6 cells per mouse) were subcutaneously inoculated into the right shoulder of the mice. Tumors were allowed to grow for 3 weeks, reaching a volume of 100 –200 mm³ before being used in subsequent experiments. For biodistribution or PET imaging studies, mice bearing subcutaneous AR42J tumors were administered 1.4 – 1.8 MBq (1 μg) of 111In-labeled DOTA-TATE variants or 2.7 – 4.9 MBq (1 μg) of 86Y-labeled DOTA-TATE variants via tail vein injection. Biodistribution studies with 111In-labeled DOTA -TATE variants were performed 1 hour post -injection (n = 3 per cohort), while studies with 86Y-labeled DOTA-TATE variants were conducted at 1, 4, and 24 hours post -injection (n = 3 per cohort). Mice were euthanized by CO2 asphyxiation, and 10 tissues, including tumors, were collected. All samples were weighed and counted on a gamma counter (2480 Wizard 3, Perkin Elmer Inc., Waltham, MA, USA). Results are presented as percentage of injected activity per gram (%IA/g) and mean values ± standard deviations. […]

[3] = blood, ex vivo, n = 3, read-out: Blood uptake
[4] = femur, ex vivo, n = 3, read-out: Femur uptake
[5] = heart, ex vivo, n = 3, read-out: Heart uptake
[6] = intestine, ex vivo, n = 3, read-out: Intestine uptake
[7] = ex vivo, n = 3, read-out: Tumor uptake
[8] = kidney, ex vivo, n = 3, read-out: Kidney uptake
[9] = liver, ex vivo, n = 3, read-out: Liver uptake
[10] = lung, ex vivo, n = 3, read-out: Lung uptake
[11] = muscle, ex vivo, n = 3, read-out: Muscle uptake
[12] = spleen, ex vivo, n = 3, read-out: Spleen uptake

## C[C@@H](O)[C@H](NC(=O)[C@@H]1CSSC[C@H](NC(=O)[C@@H](Cc2ccccc2)NC(=O)CCCC(=O)Nc2cc(COC(=O)N(C)CCNC(=O)CN3CCN(CC(=O)O)CCN(CC(=O)O)CCN(CC(=O)O)CC3)ccc2O[C@@H]2O[C@H](CO)[C@H](O)[C@H](O)[C@H]2O)C(=O)N[C@@H](Cc2ccc(O)cc2)C(=O)N[C@H](Cc2c[nH]c3ccccc23)C(=O)N[C@@H](CCCCN)C(=O)N[C@@H]([C@@H](C)O)C(=O)N1)C(=O)O [^86Y-DOTA-β-Gal-TATE, metal not drawn]
β-galactosidase; 24 h sample, radio-HPLC (peak at 2.6 min)
  Compound converted to 86Y-DOTA-NHMe: 90.7%
β-galactosidase; 1 h
  Cleaved product 86Y-DOTA-NHMe, % of the total activity: 24.6%
β-galactosidase; 4 h
  Cleaved product 86Y-DOTA-NHMe, % of the total activity: 50.2%
β-galactosidase; 24 h
  Cleaved product 86Y-DOTA-NHMe, % of the total activity: 88.8%
[1]; 2.7–4.9 MBq (1 μg), read-out: Kidney SUVmax
  SUV at 1 h: 0.54 ± 0.05 SUV
[1]; read-out: Tumor SUVmax
  SUV at 1 h: 1.96 ± 0.26 SUV
  SUV at 4 h: 1.63 ± 0.09 SUV
  SUV at 24 h: 1.86 ± 0.25 SUV
[1]; read-out: Kidney SUVmax
  SUV at 4 h: 0.4 ± 0.02 SUV
  SUV at 24 h: 0.14 ± 0.01 SUV
[2]; blood, i.v. 1 μg (2.7–4.9 MBq), ex vivo gamma counting, n = 3, read-out: Blood uptake
  tissue uptake at 1 h: 0.32 %ID/g
[2]; [3]
  tissue uptake at 4 h: 0.23 %ID/g
  tissue uptake at 24 h: 0.02 %ID/g
[2]; [4]
  tissue uptake at 1 h: 0.97 %ID/g
  tissue uptake at 4 h: 0.96 %ID/g
  tissue uptake at 24 h: 1.01 %ID/g
[2]; [5]
  tissue uptake at 1 h: 0.33 %ID/g
  tissue uptake at 4 h: 0.26 %ID/g
  tissue uptake at 24 h: 0.11 %ID/g
[2]; [6]
  tissue uptake at 1 h: 0.49 %ID/g
  tissue uptake at 4 h: 0.33 %ID/g
  tissue uptake at 24 h: 0.1 %ID/g
[2]; [7]
  tissue uptake at 1 h: 9.71 %ID/g
  tissue uptake at 4 h: 9.16 %ID/g
  tissue uptake at 24 h: 9.03 %ID/g
[2]; [8]
  tissue uptake at 1 h: 3.94 %ID/g
  tissue uptake at 4 h: 3.29 %ID/g
  tissue uptake at 24 h: 0.76 %ID/g
[2]; [9]
  tissue uptake at 1 h: 0.4 %ID/g
  tissue uptake at 4 h: 0.35 %ID/g
  tissue uptake at 24 h: 0.27 %ID/g
[2]; [10]
  tissue uptake at 1 h: 0.72 %ID/g
  tissue uptake at 4 h: 0.58 %ID/g
  tissue uptake at 24 h: 0.15 %ID/g
[2]; [11]
  tissue uptake at 1 h: 0.48 %ID/g
  tissue uptake at 4 h: 0.25 %ID/g
  tissue uptake at 24 h: 0.09 %ID/g
[2]; [12]
  tissue uptake at 1 h: 0.32 %ID/g
  tissue uptake at 4 h: 0.5 %ID/g
  tissue uptake at 24 h: 0.12 %ID/g
